These results are taken from US20240109945A1 (UNIVERSITY OF GEORGIA RESEARCH FOUNDATION, published 2024).

One test concerns the target T1, Asialofetuin (bovine, UniProt P12763 19-359, glycoprotein; desialylated form of Fetuin).
T1 construct: also called AF; desialylated Asialofetuin
T1 sequence (looked up): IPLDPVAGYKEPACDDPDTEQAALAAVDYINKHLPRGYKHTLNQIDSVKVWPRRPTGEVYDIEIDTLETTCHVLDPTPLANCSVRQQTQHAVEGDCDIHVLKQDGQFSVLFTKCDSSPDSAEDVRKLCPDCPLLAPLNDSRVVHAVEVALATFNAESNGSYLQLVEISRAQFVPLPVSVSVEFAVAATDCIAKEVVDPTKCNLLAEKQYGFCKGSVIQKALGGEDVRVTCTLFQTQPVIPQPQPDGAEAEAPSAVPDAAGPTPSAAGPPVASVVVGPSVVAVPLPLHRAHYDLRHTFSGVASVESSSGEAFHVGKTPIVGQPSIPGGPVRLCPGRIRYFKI
In words: Western blot, 1 µg glycoprotein, Fbs1 variant as probe. As to the method:
(§1) Lanes of each blot are labelled to show results for samples (1 μg each) of glycoproteins Asialofetuin, Fetuin, RNase B, Ovalbumin, Horse Radish Peroxidase, and IgG polyclonal antibody from rabbit, and a non-glycosylated protein RNase A, that were separated by SDS-PAGE, blotted on nitrocellulose membrane, and probed with Fbs1-1 (left blot) or Fbs1-2 (right blot).

The target in another test is T2, Fetuin (bovine, UniProt P12763 19-359, heavily sialylated glycoprotein).
T2 sequence (looked up): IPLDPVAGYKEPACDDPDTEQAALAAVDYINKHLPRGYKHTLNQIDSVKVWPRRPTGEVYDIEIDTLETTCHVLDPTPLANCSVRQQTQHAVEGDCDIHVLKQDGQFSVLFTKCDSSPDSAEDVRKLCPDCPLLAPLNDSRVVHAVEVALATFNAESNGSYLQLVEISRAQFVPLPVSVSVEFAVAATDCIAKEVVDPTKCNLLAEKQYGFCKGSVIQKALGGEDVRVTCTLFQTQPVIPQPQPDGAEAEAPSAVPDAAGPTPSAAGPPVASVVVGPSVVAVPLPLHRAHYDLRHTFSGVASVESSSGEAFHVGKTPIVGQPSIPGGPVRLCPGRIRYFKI
The test is described as above. As for the experimental part:
as §1

B1: Variant Fbs1-1 (designed binder)
chain: MGSSHHHHHHHHSSGENLYFQSHMASQQEGLVPEGSADEERDHWQQFYFLSKRRRNLLRNPCGEEDLEGWSDVEHGGDGWRVEELPGDNGVEFTQDDSVKKYFASSFEWCRKAQVIDLQAEGYWEELLDTTQPAIVVKDWYSGRTDAGSLYELTVRLLSENEDVLAEFATGQVAVPEDGSWMEISHTFIDYGPGVRFVRFEHGGQDSVYWKGWFGARVTNSSVWVEP
notes: Expressed in E. coli and purified by IMAC
On to B1, for which the binding result in the test with Asialofetuin and in the test with Fetuin was “binds” each time.

B2: Variant Fbs1-2 (designed binder)
chain: MGSSHHHHHHHHSSGENLYFQSHMASQQEGLVPEGSADEERDHWQQFYFLSKRRRNLLRNPCGEEDLEGWSDVEHGGDGWRVEELPGDNGVEFTQDDSVKKYFASSYRWCRKAQVIDLQAEGYWEELLDTTQPAIVVKDWYSGRTDAGSLYELTVRLLSENEDVLAEFATGQVAVPEDGSWMEISHTFIDYGPGVRFVRFEHGGQDSVYWKGWFGARVTNSSVWVEP
Take B2: the binding result in the test with Asialofetuin and in the test with Fetuin was “binds” throughout.
